{"source": "paper PMC12974146", "molecular_target": "Recombinant CdaA fragment spanning residues 88-273 (CdaA_(88-273)), Leptospira interrogans LIC10844 (Leptospira interrogans serovar Copenhageni strain Fiocruz L1-130)", "test": "SEC; TSKgel G4000SWXL column, PBS as mobile phase, 1.0 mL min^-1; 50 µg of protein injected; MW estimated from a standard curve of 15-600 kDa protein standards"}
{"substance": "Recombinant CdaA fragment spanning residues 88-273 (CdaA_(88-273)), Leptospira interrogans LIC10844 (domain or fragment)", "values": [{"measurement": "stoichiometry N", "value": 2}]}
